{"source": "patent US10100120B2", "about": "“Antibody which specifically binds to human CRTH2” (KYOWA HAKKO KIRIN CO., LTD, priority 2015, dated 2018)", "molecules": {"B1": {"name": "Lym2 antibody: rat anti-human CRTH2 monoclonal antibody from hybridoma Lym2, rat IgG2b; VH SEQ ID NO: 17, VL SEQ ID NO: 19 (antibody, listed as Rattus norvegicus, V domains shown)", "VH": "EVQLVESGGGLVQPGRSMKLSCAASGFTFSNYYMAWVRQAPKKGLEWVATISYDGSSTYYRDSVKGRFTISRDNAKSTLYLQMDSLRSEDTATYYCARHRGYYYSGAGYFDYWGQGVMVTVSS", "VL": "DVVLTQTPVSLSVTLGDQASISCRSSQSLEYSDGYTYLEWYLQKPGQSPQVLIYGVSNRFSGVPDRFIGSGSGTDFTLKISRVEPEDLGVYYCFQATHDPLTFGSGTKLEIK"}}, "tested_on": "differentiation-induced Th1 cells", "assay": "Reactivity against differentiation-induced Th1 cells", "format": "binding, human", "conditions": "antibody 10 μg/mL, 4° C., 1 hour; FIG. 15", "description": "Healthy person-derived frozen PBMC (Allcells, LLC.) was washed once with 20 mL of PBMC culture medium containing 50 μL of DNase I recombinant, RNase-free (Roche Diagnostics K.K.), suspended with 20 mL of PBMC culture medium containing 50 μL of DNase I recombinant, RNase-free, and allowed to stand in a 5% CO2 incubator at 37° C. for 2 hours.\nThereafter, the cells were washed twice with the MACS buffer described in Example 11 and naive CD4-positive T-cells were isolated by a negative selection method using Naive CD4^+ T Cell Isolation Kit II human (Miltenyi Biotec) according to the attached instructions. The negative selection was performed twice in order to improve purity of the naive CD4-positive T-cells.\nAccording to the method described in J Immunol, 2002. 169(5): p. […]\nAfter the cells were washed, 10 μg/mL of CELL LAB Mouse Anti-Rat Kappa (kappa light chain specific) FITC (Beckman Coulter Inc.) diluted with SM was added to wells to which Lym2 antibody or BM16 was added, 10 μg/mL of CELL LAB Goat Anti-Mouse IgG (γ chain specific) Fluorescein (FITC) Conjugate (Beckman Coulter Inc.) diluted with SM was added to wells to which 301108 was added at a final concentration of 10 μg/mL to cause a reaction at 4° C. for 1 hour. After the cells were washed again, the cells were suspended with SM, and the fluorescent intensity was analyzed by flow cytometry (BD Biosciences, FACS CantoII)."}
{"molecule": "B1", "values": [{"measurement": "reactivity against the differentiation-induced Th1", "result": "did not exhibit reactivity"}]}
